Experiments:
[1] = biological target: T1, human SIRPα V1-His monomer (human, UniProt P78324 31-373, limits assumed); experiment: BLI (Octet); antibody on anti-mouse IgG capture tip, SIRP-His monomer at 100, 33.3, 11.1 nM, 1:1 fit, mean KD
T1 construct: 'SIRP-His monomer protein' of the Octet assay; also called SIRP-His; not shown: His tag
Protocol: (§1) Select SIRP antibodies were tested for their affinities to human SIRPα, SIRPβ1, and SIRPγ using a biolayer interferometry (BLI) Octet system (Pall ForteBio). Each SIRP antibody with rat or mouse Fc was immobilized on a biosensor tip by an anti-mouse IgG capture (AMC). Antibodies with human Fc were digested with gingipain K enzyme to yield monomeric F(ab′), biotinylated, then coated onto streptavidin biosensors. […] The biosensors were then exposed to wash buffer to measure off-rate kinetics. The resulting kinetic data were analyzed and fitted using a 1:1 binding model with kₒₙ and kdis fitted separately at each SIRP-His protein concentration. KD affinities were calculated as kdis to kₒₙ ratio at each concentration of SIRP-His and averaged.

human SIRPβ1-His monomer [2] = biological target: T2, human SIRPβ1-His monomer (human, UniProt O00241 30-371); experiment: as above
T2 construct: 'SIRP-His monomer protein' of the Octet assay; also called SIRP-His; not shown: His tag
Protocol: as §1

human SIRPγ-His monomer [3] = biological target: T3, human SIRPγ-His monomer (human); experiment: as above
T3 construct: 'SIRP-His monomer protein' of the Octet assay; also called SIRP-His; not shown: His tag
Protocol: as §1

[4] = biological target: T4, human SIRPα V1 extracellular domain, monomeric (human, UniProt P78324 31-373); experiment: SPR (Biacore); antibody captured by anti-IgG on chip, monomeric SIRPα extracellular domain as analyte, 1:1 model
T4 construct: also called hSIRPα V1

[5] = biological target: T5, cynomolgus monkey SIRPα extracellular domain, monomeric (cynomolgus monkey, UniProt A0A2K5VYQ9 31-372); experiment: as above
T5 construct: extracellular domain; also called Cyno SIRPα

Human SIRPγ = biological target: T6, Human SIRPγ; experiment: ELISA, extracellular domain coated at 2 µg/mL, purified antibody titrated, anti-rat or anti-mouse IgG, chemiluminescence
T6 construct: also called human SIRPγ extracellular domain, plate-coated
T6 chain: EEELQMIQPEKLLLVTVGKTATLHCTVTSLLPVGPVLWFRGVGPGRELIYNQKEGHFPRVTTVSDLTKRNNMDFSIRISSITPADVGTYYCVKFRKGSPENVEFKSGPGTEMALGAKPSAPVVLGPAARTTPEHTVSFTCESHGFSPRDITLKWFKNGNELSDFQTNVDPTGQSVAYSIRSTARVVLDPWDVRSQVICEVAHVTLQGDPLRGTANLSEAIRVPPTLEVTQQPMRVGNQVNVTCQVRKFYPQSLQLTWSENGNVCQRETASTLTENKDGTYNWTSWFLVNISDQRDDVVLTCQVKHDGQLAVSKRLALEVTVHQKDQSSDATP
Protocol: (§2) Select SIRP antibodies were purified by Protein G from hybridoma supernatants and analyzed in a titration via ELISA. Briefly, 2 μg/mL of extracellular domain of each of the SIRPs was coated onto high protein-binding plates and blocked. Purified antibodies were added in a titration to the coated plates. The antibodies were detected by an anti-rat IgG or an anti-mouse IgG antibody and a chemiluminescent substrate.

Cynomolgus Monkey SIRPβ1 = biological target: T7, Cynomolgus Monkey SIRPβ1 (Macaca fascicularis); experiment: as above
T7 construct: extracellular domain; also called cyno SIRPβ1 extracellular domain, plate-coated
Protocol: as §2

[6] = biological target: T4, human SIRPα V1 extracellular domain, …; experiment: as above
Protocol: as §2

[7] = biological target: T5, cynomolgus monkey SIRPα extracellular …; experiment: as above
Protocol: as §2

[8] = biological target: T8, Human SIRPγ conjugated to an Fc region (human); experiment: BLI blocking; 200 nM antibody pre-incubated with 20 nM SIRPγ-Fc, binding to immobilised CD47-His (competitor), % of response of SIRPγ-Fc alone
T8 construct: also called SIRPγ-Fc; SIRP-Fc; not shown: Fc region
T8 sequence (Q9P1W8 whole entry): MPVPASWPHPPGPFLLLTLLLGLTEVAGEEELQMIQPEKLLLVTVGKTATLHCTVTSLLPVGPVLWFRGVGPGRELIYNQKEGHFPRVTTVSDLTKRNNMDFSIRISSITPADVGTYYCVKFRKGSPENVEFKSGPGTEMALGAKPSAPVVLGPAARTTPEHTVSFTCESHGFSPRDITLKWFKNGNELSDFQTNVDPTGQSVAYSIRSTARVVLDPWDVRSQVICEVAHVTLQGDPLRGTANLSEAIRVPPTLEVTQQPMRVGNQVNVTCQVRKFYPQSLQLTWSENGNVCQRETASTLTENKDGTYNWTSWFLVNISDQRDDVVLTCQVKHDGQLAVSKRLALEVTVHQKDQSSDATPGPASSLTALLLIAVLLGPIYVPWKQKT

[9] = biological target: T1, human SIRPα V1-His monomer; experiment: BLI (Octet); biotinylated monomeric F(ab') on streptavidin tip, SIRP-His monomer at 100, 33.3, 11.1 nM, 1:1 fit, mean KD
Protocol: as §1

human SIRPβ1-His monomer [10] = biological target: T2, human SIRPβ1-His monomer; experiment: as above
Protocol: as §1

human SIRPγ-His monomer [11] = biological target: T3, human SIRPγ-His monomer; experiment: as above
Protocol: as §1

Human SIRPβ1/DAP12 CHO = biological target: T9, Human SIRPβ1/DAP12 CHO; experiment: flow cytometry, stably transfected CHO cells, antibody titrated, labelled anti-rat or anti-mouse IgG, MFI
T9 construct: also called human SIRPβ1 on CHO cells co-transfected with DAP12; copies: 1 + 2
T9 sequence (DAP12, as listed by the source limits assumed): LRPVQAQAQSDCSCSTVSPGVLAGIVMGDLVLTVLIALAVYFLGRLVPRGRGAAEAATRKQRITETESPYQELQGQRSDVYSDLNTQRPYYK
Protocol: (§3) Selected antibodies were tested for binding to stably transfected human SIRPα, SIRPβ1 (co-transfected with DAP12), or SIRPγ Chinese hamster ovary (CHO) cells via flow cytometry. A titration of SIRP antibodies was added to the cells and detected using a fluorescently labelled secondary antibody. Graph depicts the median fluorescence intensity (MFI) at each concentration.

Human SIRPγ CHO = biological target: T10, Human SIRPγ CHO; experiment: as above
T10 construct: also called human SIRPγ on CHO cells
T10 chain: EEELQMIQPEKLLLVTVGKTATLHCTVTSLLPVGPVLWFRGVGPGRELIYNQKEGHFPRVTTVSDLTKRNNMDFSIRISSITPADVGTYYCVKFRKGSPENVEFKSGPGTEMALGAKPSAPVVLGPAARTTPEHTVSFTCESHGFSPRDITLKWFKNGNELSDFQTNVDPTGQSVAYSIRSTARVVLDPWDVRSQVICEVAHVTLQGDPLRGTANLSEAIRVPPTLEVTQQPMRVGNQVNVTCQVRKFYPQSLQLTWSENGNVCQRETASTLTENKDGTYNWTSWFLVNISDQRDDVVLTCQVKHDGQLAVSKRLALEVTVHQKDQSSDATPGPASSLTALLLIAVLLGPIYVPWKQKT
Protocol: as §3

[12] = biological target: T4, human SIRPα V1 extracellular domain, …; experiment: ELISA, extracellular domain coated at 1 µg/mL, purified antibody titrated, anti-rat IgG, chemiluminescence
Protocol: as §2, with “1” for “2”, “SIRPα” for “of each of the SIRPs”, “IgG” for “IgG or an anti-mouse IgG”

Cynomolgus Monkey SIRPγ = biological target: T11, Cynomolgus Monkey SIRPγ (Macaca fascicularis); experiment: ELISA, extracellular domain coated at 2 µg/mL, purified antibody titrated, anti-rat or anti-mouse IgG, chemiluminescence
T11 construct: extracellular domain; also called cyno SIRPγ extracellular domain, plate-coated
Protocol: as §2

Human SIRPβ1 = biological target: T12, Human SIRPβ1; experiment: ELISA, extracellular domain coated at 2 µg/mL, undiluted hybridoma supernatant, anti-rat or anti-mouse IgG, chemiluminescence
T12 construct: also called human SIRPβ1 extracellular domain, plate-coated
T12 chain: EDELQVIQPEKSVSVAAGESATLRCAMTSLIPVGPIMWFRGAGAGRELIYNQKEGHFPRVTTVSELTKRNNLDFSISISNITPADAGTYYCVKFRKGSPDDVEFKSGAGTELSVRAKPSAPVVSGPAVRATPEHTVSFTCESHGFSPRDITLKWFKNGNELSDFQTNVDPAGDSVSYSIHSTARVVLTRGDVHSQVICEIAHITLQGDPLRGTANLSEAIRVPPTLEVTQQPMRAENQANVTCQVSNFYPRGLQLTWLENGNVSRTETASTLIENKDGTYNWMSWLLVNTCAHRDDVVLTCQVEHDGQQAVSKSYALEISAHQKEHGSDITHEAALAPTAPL
Protocol: Briefly, 2 μg/mL of the extracellular domain of each of the SIRPs was coated onto high protein-binding plates and blocked. Supernatants were added undiluted to coated plates. The antibodies were detected by anti-rat or anti-mouse IgG antibodies and a chemiluminescent substrate. […] The data depict the relative luminescence units read by a plate-reader capable of detecting chemiluminescence.

B1: Antibody 1 (antibody, V domains shown)
VH: QVQLQESGPGLVKPSGTLSLTCAVSGGSISSSNWWSWVRQPPGKGLEWIGEIYHSGSTNYNPSLKSRVTISVDKSKNQFSLKLSSVTAADTAVYYCARRGIWFGVGPWGQGTLVTVSS
VL: DIVMTQSPLSLPVTPGEPASISCRSSQSLLHGNGFNYLDWYLQKPGQSPQLLIYLGSNRASGVPDRFTGSGSGTDFTLKISRVEAEDVGVYYCMQGLQTPRTFGQGTKVEIK
notes: Human variable region, rat IgG2b Fc; from hybridoma
B1 showed a Kd [1] of 37.1 nM, a Kd (human SIRPβ1-His monomer [2]) of 3520 nM and a Kd (human SIRPγ-His monomer [3]) of 973 nM. For the same binder, the Kd [4] was 579 nM, the Kd [5] was 581 nM and the “EC50 (read off the curve)” value (Human SIRPγ) was about 0.2 µg/mL. The “EC50 (read off the curve)” value (Cynomolgus Monkey SIRPβ1) was about 0.2 µg/mL, the “EC50 (read off the curve)” value [6] was about 0.1 µg/mL and the “EC50 (read off the curve)” value [7] was about 0.1 µg/mL. For the same binder, the “SIRPγ-CD47 Response (%)” value [8] was 110%.

B2: Antibody 28, monomeric F(ab') (gingipain K digest, biotinylated) (Fab, V domains shown)
VH: QVQLQESGPGLVKPSGTLSLTCAVSGGSISSSNWWSWVRQPPGKGLEWIGEIYHSGSTNYNPSLKSRVTISVDKSKNQFSLKLSSVTAADTAVYYCARRGIWFGVGPWGQGTLVTVSS
VL: DIVMTQSPLSLPVTPGEPASISCRSSQSLLHGNGFNYLDWYLQKPGQSPQLLIYLGSNRASGVPDRFTGSGSGTDFTLKISRVEAEDVGVYYCMQGLQTPRTFGQGTKVEIK
modifications: biotinylated (site not stated)
With B2 the Kd [9] was 14.9 nM, the Kd (human SIRPβ1-His monomer [10]) was 555 nM and the Kd (human SIRPγ-His monomer [11]) was 1340 nM.

B3: Antibody 4 (antibody, V domains shown)
VH: QVQLQESGPGLLKPSETLSLTCAVSDYSISSGYYWGWIRQPPGKGLEWIGSIYHSGNTYYNPSLKSRVTILVDTSKNQFSLKLSSVTAADTAVYYCARDKCSTTTCSFDYWGQGTLVTVSS
VL: DIQMTQSPSSLSASVGDRVTITCQASQDFSNYLNWYQQKPGKAPKLLIYAASNLETGVPSRFSGSGSGTDFTFTISSLQPEDIAVYYCQQYDNLPYTFGQGTKLEIK
notes: as for B1
With B3 the Kd [1] was 46.1 nM, the Kd (human SIRPγ-His monomer [3]) was 24.1 nM and the binding result (Human SIRPβ1/DAP12 CHO) was “binds”. The “EC50 (read off the curve)” value (Human SIRPγ CHO) was about 0.1 µg/mL, the “EC50 (read off the curve)” value [12] was about 0.05 µg/mL and the “EC50 (read off the curve)” value (Cynomolgus Monkey SIRPγ) was about 0.07 µg/mL. The “EC50 (read off the curve)” value (Human SIRPγ) was about 0.05 µg/mL, the “EC50 (read off the curve)” value [6] was about 0.06 µg/mL and the binding result (Human SIRPβ1) was “binds”. The “SIRPγ-CD47 Response (%)” value [8] was -6.94%.

From patent publication US20230303685A1 (ELECTRA THERAPEUTICS, published 2023)
